Laboratory results as given in PMC6451107, “Structural insights reveal the specific recognition of roX RNA by the dsRNA-binding domains of the RNA helicase MLE and its indispensable role in dosage compensation in Drosophila”.
Where a chain is given by its changes, count along the chain named. Numbers in names are those of the source.

How the values were obtained:
Assay in all cases: fluorescence polarization; FP: 80 nM 3'-FAM RNA stock mixed 1:1 with protein, buffer D (composition not in material), 15 min, 20 C; EMSA: 1200 nM RNA stock mixed 1:1 with protein, buffer
[1] = biological target: MLE dsRBD1+2 K58A (Drosophila, UniProt P24785 1-264, K58A); conditions: protein: recombinant; tags: SUMO tag removed by ULP1; label: 3'-FAM; hairpin, 13 nt loop (C135-C147)
[2] = biological target: MLE dsRBD1+2 N52A/K53E/K54E/K58E (Drosophila, UniProt P24785 1-264, N52A;K53E;K54E;K58E); conditions: protein: recombinant; tags: SUMO tag removed by ULP1; label: 3'-FAM; hairpin, 13 nt loop (C135-C147)
[3] = biological target: MLE dsRBD1+2 K4A/S5A (Drosophila, UniProt P24785 1-264, K4A;S5A); conditions: protein: recombinant; tags: SUMO tag removed by ULP1; label: 3'-FAM; hairpin, 13 nt loop (C135-C147)
[4] = biological target: MLE dsRBD1+2 H196A (Drosophila, UniProt P24785 1-264, H196A); conditions: protein: recombinant; tags: SUMO tag removed by ULP1; label: 3'-FAM; hairpin, 13 nt loop (C135-C147)
[5] = biological target: MLE dsRBD1+2 K171A (Drosophila, UniProt P24785 1-264, K171A); conditions: protein: recombinant; tags: SUMO tag removed by ULP1; label: 3'-FAM; hairpin, 13 nt loop (C135-C147)
[6] = biological target: MLE dsRBD1+2 N29A (Drosophila, UniProt P24785 1-264, N29A); conditions: protein: recombinant; tags: SUMO tag removed by ULP1; label: 3'-FAM; hairpin, 13 nt loop (C135-C147)
[7] = biological target: MLE dsRBD1+2 N223A/K224E/K225E/K229E (Drosophila, UniProt P24785 1-264, N223A;K224E;K225E;K229E); conditions: protein: recombinant; tags: SUMO tag removed by ULP1; label: 3'-FAM; hairpin, 13 nt loop (C135-C147)
[8] = biological target: MLE dsRBD1+2 N223A/K224A/K225A (Drosophila, UniProt P24785 1-264, N223A;K224A;K225A); conditions: protein: recombinant; tags: SUMO tag removed by ULP1; label: 3'-FAM; hairpin, 13 nt loop (C135-C147)
[9] = biological target: MLE dsRBD1+2 K171E (Drosophila, UniProt P24785 1-264, K171E); conditions: protein: recombinant; tags: SUMO tag removed by ULP1; label: 3'-FAM; hairpin, 13 nt loop (C135-C147)
[10] = biological target: MLE dsRBD1+2 K4A (Drosophila, UniProt P24785 1-264, K4A); conditions: protein: recombinant; tags: SUMO tag removed by ULP1; label: 3'-FAM; hairpin, 13 nt loop (C135-C147)
[11] = biological target: MLE dsRBD1+2 N175A (Drosophila, UniProt P24785 1-264, N175A); conditions: protein: recombinant; tags: SUMO tag removed by ULP1; label: 3'-FAM; hairpin, 13 nt loop (C135-C147)
[12] = biological target: MLE dsRBD1+2 H196E (Drosophila, UniProt P24785 1-264, H196E); conditions: protein: recombinant; tags: SUMO tag removed by ULP1; label: 3'-FAM; hairpin, 13 nt loop (C135-C147)
[13] = biological target: MLE dsRBD1+2 K4E (Drosophila, UniProt P24785 1-264, K4E); conditions: protein: recombinant; tags: SUMO tag removed by ULP1; label: 3'-FAM; hairpin, 13 nt loop (C135-C147)
[14] = biological target: MLE dsRBD1+2 K171E/N175A (Drosophila, UniProt P24785 1-264, K171E;N175A); conditions: protein: recombinant; tags: SUMO tag removed by ULP1; label: 3'-FAM; hairpin, 13 nt loop (C135-C147)
[15] = biological target: MLE dsRBD1+2 K4E/S5A (Drosophila, UniProt P24785 1-264, K4E;S5A); conditions: protein: recombinant; tags: SUMO tag removed by ULP1; label: 3'-FAM; hairpin, 13 nt loop (C135-C147)
[16] = biological target: MLE dsRBD1+2 WT (Drosophila, UniProt P24785 1-264); conditions: protein: recombinant, tags: SUMO tag (N-terminal, with Ni-NTA purification) removed by ULP1, label: 3'-FAM, hairpin
[17] = biological target: MLE dsRBD1+2 E195A (Drosophila, UniProt P24785 1-264, E195A); conditions: protein: recombinant; tags: SUMO tag removed by ULP1; label: 3'-FAM; hairpin, 13 nt loop (C135-C147)
[18] = biological target: MLE dsRBD1+2 S5A (Drosophila, UniProt P24785 1-264, S5A); conditions: protein: recombinant; tags: SUMO tag removed by ULP1; label: 3'-FAM; hairpin, 13 nt loop (C135-C147)
[19] = biological target: MLE dsRBD1+2 K229A (Drosophila, UniProt P24785 1-264, K229A); conditions: protein: recombinant; tags: SUMO tag removed by ULP1; label: 3'-FAM; hairpin, 13 nt loop (C135-C147)
[20] = biological target: MLE dsRBD1+2 N52A/K53A/K54A (Drosophila, UniProt P24785 1-264, N52A;K53A;K54A); conditions: protein: recombinant; tags: SUMO tag removed by ULP1; label: 3'-FAM; hairpin, 13 nt loop (C135-C147)
[21] = biological target: MLE dsRBD1+2 E172A (Drosophila, UniProt P24785 1-264, E172A); conditions: protein: recombinant; tags: SUMO tag removed by ULP1; label: 3'-FAM; hairpin, 13 nt loop (C135-C147)
[22] = biological target: MLE dsRBD2 (Drosophila, UniProt P24785 152-264); conditions: protein: recombinant; tags: SUMO tag removed by ULP1; label: 3'-FAM; hairpin, 13 nt loop (C135-C147)
[23] = biological target: MLE dsRBD1 (Drosophila, UniProt P24785 1-87); conditions: protein: recombinant; tags: SUMO tag removed by ULP1; label: 3'-FAM; hairpin, 13 nt loop (C135-C147)

B1: R2H1 55mer (FAM) (structured_RNA)
RNA: GCUUUAGAGAUCGUUUCGAAUCACAUUGAUAAUCGUUCGAAACGUUCUCCGAAGC
In the case of B1, the Kd [1] is reported as 2380 ± 130 nM, the Kd [2] is reported as 12.5 ± 1.51 µM and the Kd [3] is reported as 4.49 ± 0.54 µM. For the same binder, the Kd [4] was 3.02 ± 0.2 µM, the Kd [5] was 4.58 ± 0.68 µM and the Kd [6] was 430 ± 70 nM. It also gave a Kd [7] of 60.1 ± 6.55 µM, a Kd [8] of 18.9 ± 1.45 µM and a Kd [9] of 8.21 ± 0.26 µM. It also gave a Kd [10] of 4.18 ± 0.27 µM, a Kd [11] of 1310 ± 260 nM and a Kd [12] of 7.24 ± 0.65 µM. It also gave a Kd [13] of 6.55 ± 0.56 µM, a Kd [14] of 10.3 ± 1.14 µM and a Kd [15] of 8.05 ± 0.34 µM. It also gave a Kd ([16]; 13 nt loop (C135-C147)) of 200 ± 30 nM, a Kd [17] of 150 ± 30 nM and a Kd [18] of 1800 ± 240 nM. For the same binder, the Kd [19] was 880 ± 180 nM, the Kd [20] was 7.7 ± 0.36 µM and the Kd [21] was 180 ± 40 nM. The binding signal [22] was roughly 4.5 fold weaker than dsRBD1+2 and the binding signal [23] was roughly 44 fold weaker than dsRBD1+2.

B2: R2H1 U134C/C135G (structured_RNA)
RNA: B1 RNA with U21C, C22G
B2 showed a Kd [16] of 430 ± 50 nM.

B3: R2H1 U124A (structured_RNA)
RNA: B1 RNA with U11A
For B3, the Kd [16] was 1030 ± 120 nM.

B4: R2H1 U118C/A119G (structured_RNA)
RNA: B1 RNA with U5C, A6G
Binder B4 has a Kd [16] of 420 ± 60 nM.
